Test results: patent US20240181073A1, “Antibody-Drug Conjugates Comprising an Anti-BCMA Antibody” (Sorrento Therapeutics, Inc., priority 2021, published 2024)

What was measured:
[1] = molecular target: T1, Human BCMA (B Cell Maturation Antigen) (human, UniProt Q02223 1-184); test: cell-based or functional assay
T1 sequence: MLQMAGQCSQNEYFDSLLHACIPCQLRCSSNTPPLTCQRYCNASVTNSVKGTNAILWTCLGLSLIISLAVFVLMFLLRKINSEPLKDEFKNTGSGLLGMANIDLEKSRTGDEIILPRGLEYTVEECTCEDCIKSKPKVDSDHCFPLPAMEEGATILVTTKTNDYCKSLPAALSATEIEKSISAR

[2] = molecular target: T1, Human BCMA (B Cell Maturation Antigen); test: cell-based or functional assay; remark: listed apart in the source
[3] = molecular target: T1, Human BCMA (B Cell Maturation Antigen); test: cell-based or functional assay; remark: listed apart in the source
[4] = system: K562 (BCMA −) cells; test: In vitro cell viability assay (Cell Titer-Glo 2.0), Example B1; type: cell-based, human; details: Table 4; 5-day assays; AB1 clone; read-out: EC50 Values, Cell Line K562
Method: (§1) The in vitro efficacies of ADCs anti-BCMA-Compound 1, anti-BCMA-Compound 2, anti-BCMA-Compound 3, anti-BCMA-Compound 4, anti-BCMA-Compound 5, anti-BCMA-Compound 6, anti-BCMA-Compound 7, and anti-BCMA-Compound 8, were evaluated using the following human cancer cell lines: K562, MM.1R and NCI-H929, purchased from the American Type Culture Collection (ATCC; Manassas, VA). The cells were cultured in RPMI-1640 medium (Gibco ThermoFisher; Waltham, MA) supplemented with 10% heat-inactivated fetal bovine serum (FBS: Corning; Corning, NY, USA) and 1× penicillin-streptomycin (Corning) and maintained at 37° C. in a 5% CO2 humidified environment.
(§2) The in vitro assays were performed as follows: Tumor cells were harvested by centrifugation at 300 g for 5 minutes and plated into 96-well clear bottom white-walled plates (5,000 to 10,000 cells/well in 50 μL complete medium) and maintained at 37° C. Cells were then treated in duplicate with 50 μL of test articles prepared at 2× final concentration that were serially diluted in complete medium and incubated at 37° C. for up to 120 hrs. After treatment, inhibition of cancer cell growth was determined using the Cell Titer-Glo® 2.0 Cell Viability Assay (Promega; Madison, WI, USA) as described by the manufacturers' protocol. Luminescence was measured using a Perkin-Elmer Envision 2104 Microplate Reader (Waltham, MA).
(§3) Data were normalized to non-treated controls using Microsoft Excel (Redmond, WA, USA) and analyzed using GraphPad Prism software (version 8; La Jolla, CA, USA). Half-maximal effective concentrations (EC50) were derived from dose response curves were generated using non-linear regression analysis fit to a 4-parameter logistic equation.

[5] = system: NCI-H929 (BCMA+) cells; test: as above; type: cell-based, human; details: 4-day assays, FIG. 2A
Method: as §1, §2, §3

B1: anti-BCMA-AB1-Compound 3 (antibody, human IgG1, V domains shown)
VH: EVQLVESGGGLVKPGGSLRLSCAASGFTSSTAWMSWVRQAPGKGLEWVGRIKSKSDGGTTDYAAPVKGRFTISRDDSKNTLFLQMNSLKTEDTAVYYCAKGGGTYGYWGQGTTVTVSS
VL: QSVLTQPASVSGSPGQSVTISCTGTSSAHGGHYYVSWYQQHPGKAPKLMIYDVSNRPSGVSNRFSGSKSGNTASLTISGLQAEDEADYYCGSYTSSGSYVFGTGTKLTVL
modifications: drug-linker Compound 3 on antibody cysteine thiols (C-lock conjugation; positions not stated)
EC50 of cell viability (CellTiter-Glo 2.0), NCI-H929 (BCMA-positive) cells, 120-hour assay [1]: 0.368 nM | EC50 of cell viability (Cell Titer-Glo), MM.1R (BCMA+) cells, 5-day assay [2]: 2.28 nM | EC50 of cell viability (Cell Titer-Glo), NCI-H929 (BCMA+) cells, 5-day assay [2]: 0.699 nM | EC50 of cell viability (Cell Titer-Glo), MM.1R (BCMA+) cells, 4-day assay [3]: 10 nM | EC50 of cell viability (Cell Titer-Glo), NCI-H929 (BCMA+) cells, 4-day assay [3]: 2.21 nM

B2: anti-BCMA-AB1-Compound 52 (antibody, human IgG1, V domains shown)
VH: B1 VH
VL: B1 VL
modifications: drug-linker Compound 52 on antibody cysteine thiols (C-lock linkage; positions not stated)
EC50 of cell viability (CellTiter-Glo 2.0), NCI-H929 (BCMA-positive) cells, 120-hour assay [1]: 0.169 nM

B3: BCMA-AB1-2: Compound 2 conjugated with anti-BCMA antibody clone BCA7-2C5 (AB1); DAR 3.4 (conjugate)
VH: B1 VH
VL: B1 VL
EC50 [4]: > 100 nM

B4: BCMA-AB1-8 (conjugate)
VH: B1 VH
VL: B1 VL
cell killing of NCI-H929 [5]: comparable activity to the Gly2 peptide linker ADC, anti-BCMA-AB1-7

B5: BCMA-AB1-1: Compound 1 conjugated with anti-BCMA antibody clone BCA7-2C5 (AB1); DAR 3.8 (conjugate)
VH: B1 VH
VL: B1 VL
EC50 [4]: > 100 nM
